Test results from US20200199213A1 (Eli Lilly, published 2020).
Where a chain is given by its changes, count along the chain named. In names and notes the source's numbering stands.

T1: human ANGPTL8 (human, UniProt Q6UXH0 22-198)
T1 construct: Biotinylated in the ELISA assays; also called hANGPTL8; free ANGPTL8
T1 sequence: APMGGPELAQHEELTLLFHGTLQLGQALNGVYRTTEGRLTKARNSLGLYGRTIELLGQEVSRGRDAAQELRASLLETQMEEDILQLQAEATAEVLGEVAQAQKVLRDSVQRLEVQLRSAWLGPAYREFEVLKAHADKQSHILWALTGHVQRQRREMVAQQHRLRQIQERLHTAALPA

T2: human ANGPTL3 (human, UniProt Q9Y5C1 17-460)
T2 construct: Biotinylated in the ELISA assays; also called hANGPTL3; free ANGPTL3
T2 sequence: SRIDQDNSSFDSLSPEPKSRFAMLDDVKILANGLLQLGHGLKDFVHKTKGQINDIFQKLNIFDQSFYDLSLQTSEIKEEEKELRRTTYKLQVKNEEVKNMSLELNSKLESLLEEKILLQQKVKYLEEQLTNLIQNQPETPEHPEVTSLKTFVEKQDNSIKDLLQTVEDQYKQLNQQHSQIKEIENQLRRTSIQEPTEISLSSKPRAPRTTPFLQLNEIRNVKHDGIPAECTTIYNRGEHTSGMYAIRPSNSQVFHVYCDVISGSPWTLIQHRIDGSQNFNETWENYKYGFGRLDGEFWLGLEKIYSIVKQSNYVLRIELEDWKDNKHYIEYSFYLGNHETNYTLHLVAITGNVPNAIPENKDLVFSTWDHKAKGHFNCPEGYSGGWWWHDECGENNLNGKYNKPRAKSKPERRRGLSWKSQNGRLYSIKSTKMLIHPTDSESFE

T3: human ANGPTL3/8 complex (human, UniProt Q9Y5C1 17-460; Q6UXH0 22-198, limits assumed)
T3 construct: also called hANGPTL3/8 complex; ANGTPL3/8 complex
T3 sequence 1: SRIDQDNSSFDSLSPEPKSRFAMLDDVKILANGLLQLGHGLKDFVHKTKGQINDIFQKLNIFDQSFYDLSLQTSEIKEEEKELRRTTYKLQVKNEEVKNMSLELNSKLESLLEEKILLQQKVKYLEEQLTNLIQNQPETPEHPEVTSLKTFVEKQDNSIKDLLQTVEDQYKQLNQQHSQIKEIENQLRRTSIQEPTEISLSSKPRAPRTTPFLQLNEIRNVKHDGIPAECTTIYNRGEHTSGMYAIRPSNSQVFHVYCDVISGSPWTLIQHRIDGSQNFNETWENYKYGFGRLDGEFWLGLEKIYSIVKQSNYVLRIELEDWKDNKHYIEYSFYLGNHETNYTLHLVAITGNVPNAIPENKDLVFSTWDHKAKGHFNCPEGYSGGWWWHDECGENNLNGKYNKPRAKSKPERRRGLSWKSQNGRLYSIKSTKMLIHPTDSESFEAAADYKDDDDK
T3 sequence 2: T1 sequence

B1: anti-ANGPTL3/8 complex Ab having a LC of SEQ ID NO:5 and a HC of SEQ ID NO:6 (antibody, human IgG4 S228P, kappa, F234A L235A, V domains shown)
VH: QVTLKESGPTLVKPTQTLTLTCTFSGFSLSISGVGVGWIRQPPGKALEWLALIYRNDDKRYSPSLKSRLTITKDTSKNQVVLTLTNMDPVDTATYYCARTYSSGWYGNWFDPWGQGTLVTVSS
VL: DIVMTQTPLSLPVTPGEPASISCRSSQSLLDSDDGNTYLDWYLQKPGQSPQLLIYMLSYRASGVPDRFSGSGSGTDFTLKISRVEAEDVGIYYCMQRIEFPLTFGGGTKVEIKR
notes: In the ELISA assays tested as IgG from CHO supernatants; also called the Ab
B2: Ab with LC variant having a E99Q mutation (SEQ ID NO:25) and a HC of SEQ ID NO:6 (antibody, human IgG4 S228P, kappa, F234A L235A, V domains shown)
VH: B1 VH
VL: B1 VL with E99Q
notes: also called E99Q Variant Ab; E99Q Ab
B3: Ab with LC variant having a D31S mutation (SEQ ID NO:21) and a HC of SEQ ID NO:6 (antibody, human IgG4 S228P, kappa, F234A L235A, V domains shown)
VH: B1 VH
VL: B1 VL with D31S
notes: also called D31S Variant Ab; D31S Ab
B4: Ab with LC variant having a D33A mutation (SEQ ID NO:22) and a HC of SEQ ID NO:6 (antibody, human IgG4 S228P, kappa, F234A L235A, V domains shown)
VH: B1 VH
VL: B1 VL with D33A
notes: also called D33A Variant Ab; D33A Ab

Tests used:
[1] = target: T1, human ANGPTL8; experiment: single point ELISA
Description: (§1) Single Point ELISA (SPE) Assay: Ab binding selectivity to either the ANGPTL3/8 complex, free ANGPTL3 or free ANGPTL8 is initially verified using standard ELISA assays in a single point format. […] IgG secreted into supernatants after expression in CHO cells are then captured to the assay plate. Biotinylated antigen is added at a concentration of 25 nM to allow for Ab/antigen binding. Ab/antigen complexes are detected after adding alkaline phosphatase-conjugated neutravidin and alkaline phosphatase substrate, and subsequent measurement of the optical density at 560 nm. Positive binding is determined by a signal greater than 3 fold over the non-binding background signal.

[2] = target: T2, human ANGPTL3; experiment: single point ELISA
Description: as §1

[3] = target: T3, human ANGPTL3/8 complex; experiment: ELISA; Ab captured by anti-human Fc; biotinylated antigen at 11.1 nM
Description: (§2) ELISA Assay: Ab binding selectivity to either the ANGPTL3/8 complex, free ANGPTL3 or free ANGPTL8 is verified using standard ELISA assays. […] Ab from CHO supernatants after expression in CHO cells is then captured to the assay plate and results is an Ab concentration of 2 μg/ml. Biotinylated antigen (ANGPTL3, ANGPTL8 or ANGPTL3/8 complex) is added at varying concentrations by serial dilution to allow for Ab/antigen binding. Ab/antigen complexes are detected after the addition of alkaline phosphatase-conjugated neutravidin, and alkaline phosphatase substrate, and subsequent measurement of the optical density at 560 nm.

[4] = target: T2, human ANGPTL3; experiment: as above
Description: as §2

[5] = target: T3, human ANGPTL3/8 complex; experiment: ELISA; Ab captured by anti-human Fc; biotinylated antigen at 0.137 nM
Description: as §2

[6] = target: T1, human ANGPTL8; experiment: as above
Description: as §2

[7] = target: T2, human ANGPTL3; experiment: as above
Description: as §2

[8] = target: T3, human ANGPTL3/8 complex; experiment: SPR, Biacore T200; Ab captured on Human Fab Binder, complex injected; pH 7.4, 25 C
[9] = target: T1, human ANGPTL8; experiment: ELISA, antigen titration
Description: as §2

[10] = target: T2, human ANGPTL3; experiment: ELISA, antigen titration
Description: as §2

Binder	binding result [1]	binding result [2]	OD at 560 nm [3]	OD at 560 nm [4]	OD at 560 nm [5]	OD at 560 nm [6]	OD at 560 nm [7]	Kd [8]	koff [8]	kon [8]	binding result [9]	binding result [10]
B1	no binding	no binding	1.71 OD 560 nm	0.046 OD 560 nm	0.11 OD 560 nm	0.047 OD 560 nm	0.048 OD 560 nm	–	–	–	–	–
B2	no binding	no binding	1.74 OD 560 nm	0.062 OD 560 nm	0.137 OD 560 nm	0.08 OD 560 nm	0.057 OD 560 nm	0.0484 nM	3.26e-05 s⁻¹	674000 M⁻¹ s⁻¹	–	–
B3	–	–	1.74 OD 560 nm	0.062 OD 560 nm	0.137 OD 560 nm	0.08 OD 560 nm	0.057 OD 560 nm	–	–	–	no binding (tested: 100 nM antigen)	no binding (tested: 100 nM antigen)
B4	–	–	1.64 OD 560 nm	0.06 OD 560 nm	0.101 OD 560 nm	0.053 OD 560 nm	0.062 OD 560 nm	–	–	–	no binding (tested: 100 nM antigen)	no binding (tested: 100 nM antigen)
